In patent publication US6093692A, “Method and compositions for lipidization of hydrophilic molecules” (The University of Southern California, priority 1997, dated 2000):
Where two headings read alike, the source gives them in different places.

Legend:
[1] = system: C3H 10T1/2(clone 8) cells; experiment: In vitro transformation assay (MCA-induced); format: cell-based; settings: for Transformed foci / Fraction of dishes containing transformed foci / No. of dishes with transformed foci/No. of dishes: MCA 1 μg/ml 24 hr, conjugates 1.0 μg/ml first three weeks; for Fraction of dishes containing transformed foci / No. of dishes with transformed foci/No. of dishes: scored at six weeks
Procedure: Transformation assays were carried out using C3H 10T1/2(clone 8) cells according to the published recommendations [Reznikoff, C. A., et al., Cancer. Res., 33:3239-3249 (1973); Reznikoff, C. A., et al., Cancer. Res., 33:3231-3238 (1973)]. Stock cultures of mycoplasma-free cells were maintained by passing 50,000 cells per 75 cm^2 flask every seven days. Using this schedule, the cells were always passed approximately 2 days before reaching confluence. The stock culture was grown in Eagle's basal medium supplemented with 10% FBS, penicillin (100 units), and streptomycin (100 μg) and used for the transformation assays at passages of 9 to 14. The cells were passed by treating the stock cells with trypsin (0.1%) in PBS for 5 min and quenching the trypsin with 5 ml of the medium. This procedure was adapted to minimize spontaneous transformation in the stock cultures and maximize the plating efficiency in the petri dishes. The FBS stock used in the cultures was pre-screened to ensure that the serum was able to support the expression and the growth of the transformed cells.
For the transformation assays, C3H 10T1/2 cells (1000/dish) were seeded into 60 mm petri dishes and allowed to grow in a humidified 5% CO2 atmosphere in Eagle's basal medium, supplemented with 10% FBS, penicillin (100 units), and streptomycin (100 μg), for 24 hr. Subsequently, the cells were initiated by treatment with 25 μl of the 3-methylcholanthrene (MCA) in acetone stock solution ([…]) to a final concentration of 1 μg/ml of MCA (5 μg/5 ml). The cells were allowed to grow in the presence of the carcinogen or solvent for 24 hr, and the medium in each dish was then replaced with fresh medium containing no carcinogen or solvent. The medium in the dishes was replaced twice per week for the first two weeks of the assay, and thereafter once a week for the remainder four weeks of the assay. In the experiments designed to determine the transformation inhibitory activity of the conjugates, the cells were maintained in the medium containing the conjugates (1 μg/ml) for the first three weeks of the assay; thereafter, the cells were maintained in medium containing no added conjugates.
Six weeks after the carcinogen treatment, the cells were inspected under a microscope for adherence to the culture dishes and were washed with PBS and then fixed in 100% methanol. The fixed monolayers were then stained with Giemsa stain. Twenty dishes per group were treated in each experiment. In addition to the test groups, all the transformation assays contained at least three other groups: negative control (not treated with carcinogen or solvent), acetone control (treated with 25 μl of acetone), and positive control [treated with MCA (1 μg/ml) in 25 μl of acetone]. The transformed foci (>3 mm in diameter) in the plates were studied under a microscope and classified according to published guidelines as types I, II, or III [Landolph, J. R., Transfomatin assay of established cell lines: Mechanism and Application (ed. Kakunaga, T., and Yamasaki, H.) IARC Scientific Publications, Lyon, France pp. 185-201 (1985)]. Briefly, type III foci were dense, multilayered, basophilic, areas of cell growth which stained to a deep blue color with Giemsa and had rough crisscrossed edges. Type II foci were also dense, multilayered, areas of cell growth, but were stained to a purple color with Giemsa and had smoother, more defined edges compared to Type III foci. Type I foci were not scored in the assay.
BBI, either as the free protein or in conjugated form to palmitic or oleic acid, was added to the cultures at 1.0 μg/ml for the first three weeks of the transformation assay period starting immediately after the MCA treatment. MCA-treated cells were exposed to 3-methylcholanthrene, dissolved in 25 μl of acetone, at a concentration of 1 μg/ml for 24 hr. Acetone-treated cells were exposed to 25 μl of acetone for 24 hr only. […]

C3H 10T1/2 cells = experiment: Plating efficiency; format: cell-based
Procedure: The plating efficiency (PE) of the cells was also studied in conjunction with each of the transformation assays. To determine the PE of the cells in the different treatment groups, cells (200 cells/dish) were seeded into three 60-mm petri dishes per experiment group and treated in the identical manner as the transformation assay cells. The cells in these assays were terminated at 10 days, fixed with 100% methanol, and stained with giemsa; the colonies of 50 cells or more visible under a microscope were then counted. The plating efficiency is defined as the (number of colonies/number of cells seeded)×100%.

Caco-2 cells = format: cell-based, Human
Procedure: Human colon carcinoma cells (Caco-2) were detached from 25 cm^2 stock culture flasks using a 10 min incubation at 37° C. with 0.5 ml of a trypsin/EDTA solution (0.5% trypsin, 5.3 mM EDTA). The cells were then suspended in 5 ml of Dulbecco's minimum essential medium, supplemented with 15% fetal bovine serum (FBS), L-glutamine (1%), and essential amino acids (1%), and counted using a coulter counter.
Radioiodination of BBI and BBIssPal was carried out using the chloramine-T method [McConahey, P. C. and Dixon, F. J., Meth. Enzymol., 70:221-247 (1980)]. Confluent, 14-day old cell monolayers were washed once with, and then incubated in, serum-free Dulbecco medium at 37° C. for 30 min. Subsequently, the incubation medium was replaced with serum free medium containing ^125 I-BBI (10 μg/ml), either as native-BBI or as BBIssPal or BBIssOleic, and the monolayers were incubated for a further 60 min at 37° C. The monolayers were then washed three times with ice-cold PBS, and then exposed to trypsin (0.5%, EDTA 5.3 mM) for 10 min at 37° C. The detached cells were transferred to tubes, isolated by centrifugation, washed three times using ice-cold PBS, assayed for accumulated radioactivity using a gamma counter, and finally assayed for cell protein using the published method [Lowry, O. H., et al., J. Biol. Chem., 193:265-275 (1951)].
In some experiments the uptake of reduced ^125 I-BBIssPal into cells was determined. ^125 I-BBIssPal was reduced with DTT (50 mM) at 60° C. for 5 min followed by a further 25 min at 37° C. In control experiments, ^125 I-BBIssPal was exposed in medium to the same temperatures without being exposed to DTT.
The uptake of ^125 I-BBIssPal in the presence of BSA (fatty acid free) was determined as follows. ^125 I-BBIssPal was incubated with medium containing 0.1% BSA for 30 min at 37° C. before being added to the cell monolayers. In some uptake experiments, BSA was first mixed with a 3-fold molar excess of palmitic acid, and then incubated with the conjugates prior to the experiments. In the experiments where the uptake of ^125 I-BBIssPal was determined in medium containing FBS, the conjugates was simply added to the medium containing the required amount of FBS.
The cell monolayers were incubated with ^125 I-labeled conjugates at 10 μg/ml for 60 min at 37° C. The results presented are the average of three monolayers ±SEM. The uptake experiments were carried out in Dulbecco medium, in the presence and absence of added FBS.
The cell uptake of ^125 I-BBI, either as the native protein or as BBIssPal was determined before and after reduction with DTT (50 mM) for 5 min at 60° C. and 25 min at 37° C.
The uptake experiments were carried out in Dulbecco medium, in the presence and absence of added fatty acid-free BSA (BSA) or fatty acid-loaded BSA (BSA/FA). The results of studies of the uptake of ^125 I-BBI, either as the native-BBI or in conjugated form to palmitic or oleic acid, in Caco-2 cells in the presence of serum-free medium are presented in FIG. 1. The results are shown as the average ng of BBI internalized ±SEM, n=3. The uptake of ^125 I-BBIssPal into the cells was approximately 100-fold higher than that of ^125 I-BBI. […] The difference between the uptake of ^125 I-BBIssPal and ^125 I-BBIssOleic were significant.

[2] = set-up: species or system CF-1 mice; settings: mouse, in vivo, iv, 3 mg/kg
Procedure: Female CF-1 mice, […], weighing 20-25 g each, with free access to food and water prior to the experiments, were used for the animal experiments. ^125 I-BBI (3 mg/kg), as native-BBI or as BBIssPal or BBIssOleic conjugate, was administered to the animals via the tail vein. At 0.5, 3, and 24 hr post-injection, 3 animals from each experiment group were sacrificed and their blood (200 μl), the kidneys, the lungs, and the liver were removed, rinsed in ice-cold PBS, and assayed for accumulated radioactivity. The weights of the organs were recorded and used to adjust the concentration of the conjugates in the organs.

| Molecule | Transformed foci [1] | Fraction of dishes containing transformed foci [1] | No. of dishes with transformed foci/No. of dishes [1] | Plating Efficiency (C3H 10T1/2 cells; 200 cells/dish, 10 days, treated as in the transformation assay) [%] | Effect of fatty acid-loaded BSA on uptake (Caco-2 cells) | Reduction of uptake after reduction with DTT (Caco-2 cells) | Reduction of uptake by defatted-BSA (Caco-2 cells) | Blood levels and removal from circulation [2] | Kidney accumulation [2] | Plating Efficiency (C3H 10T1/2 cells) [%] | Uptake, fold higher than that of BBI (Caco-2 cells) | Blood levels, fold higher than BBI [2] | Kidney clearance, fold lower than native-BBI [2] | Liver accumulation, fold higher than BBI [2] | Lung accumulation/levels, fold higher than BBI [2] | Retention in the liver [2] | Retention of anti-transformation activity of BBI ([1]; 1.0 μg/ml) |
| --- | --- | --- | --- | --- | --- | --- | --- | --- | --- | --- | --- | --- | --- | --- | --- | --- | --- |
| Cc1ccc2cc3c(ccc4ccccc43)c3c2c1CC3 [MCA, 3-methylcholanthrene, reference compound] | 6 out of the 19 dishes scored contained type III foci | 0.32 | 6/19 | 21 ± 3.0 |  |  |  |  |  |  |  |  |  |  |  |  |  |
| BBI: a hydrophilic protein which has low uptake into cells and is not orally bioavailable (protein, UniProt P01055 40-110, looked up) Bowman-Birk type proteinase …: DDESSKPCCDQCACTKSNPPQCRCSDMRLNSCHSACKSCICALSYPAQCFCVDITDFCYEPCKPSEDDKEN | no transformed foci | 0 | 0/20 |  | not affected | did not cause a reduction in the uptake | not affected | rapidly excreted from the body without attaining high blood levels | rapidly accumulated in the kidneys | 24 ± 2.0 |  |  |  |  |  |  |  |
| BBIssOleic: the oleic acid conjugated BBI (conjugate, UniProt P01055 40-110, looked up, oleyl disulfide conjugate; 125I, the oleic acid conjugated BBI) Bowman-Birk type proteinase …: DDESSKPCCDQCACTKSNPPQCRCSDMRLNSCHSACKSCICALSYPAQCFCVDITDFCYEPCKPSEDDKEN | no transformed foci | 0 | 0/20 |  |  |  |  | higher blood levels than BBI |  | 24 ± 3.5 | about 108 fold | about 4 fold | about 4 fold | about 4 fold | about 2 fold | significant levels of the conjugate present in the liver even at 24 hr post-injection | retained the original biological activity of BBI |
